Source: patent US8168587B2, “Combination enzyme replacement and small molecule therapy for treatment of lysosomal storage diseases” (Genezyme Corporation, priority 2000, dated 2012)

System: Fabry mice
Experiment: Sequential enzyme replacement then small molecule therapy: GB3 re-accumulation in Fabry mouse liver
Source text: In vivo efficacy of combination enzyme replacement therapy plus small molecule therapy in Fabry disease. […] Study protocol for sequential combination of enzyme (α-galactosidase A) replacement followed by small molecule administration (NB-DNJ, AMP-DNJ or D-t-et-P4) on globotriaosylceramide (GB3) re-accumulation in Fabry mice. […] Results of study protocol for Fabry mouse liver tissue. GB3 re-accumulation at four weeks (μg GB3 per gm liver tissue) is plotted on the ordinate versus absence of small molecule treatment (Vehicle) or daily intra-peritoneal small molecule therapy with D-t-et-P4 (at either 5 mg/kg or 0.5 mg/kg), NB-DNJ (at 500 mg/kg), or AMP-DNJ (at 100 mg/kg).
Fabry mice were used to test the in vivo efficacy of combining enzyme replacement therapy with small molecule therapy in a sequential treatment format (FIG. 1). The study was designed to evaluate whether substrate inhibition (i.e. “substrate deprivation therapy”) using small molecules of the DNJ and P4 types could reduce re-accumulation of the storage material globotriaosylceramide (GB3). The study protocol (FIG. 1A) called for a single infusion of α-galactosidase A enzyme to reduce GB3 levels (measured at two weeks) to a “Baseline” level in Fabry mouse liver. GB3 re-accumulation was then measured at four weeks in control mice receiving no small molecule therapy (“Vehicle”) and in mice receiving various small molecules at various doses. Accordingly, two weeks after GB3 levels were reduced to a “Baseline” level of about 0.1 μg/g liver (FIG. 1B), a small molecule or vehicle was administered by intra-peritoneal (IP) injection.

Row | Molecule | GB3 re-accumulation in Fabry mouse liver tissue (5 mg/kg daily IP after single α-galactosidase A infusion, four week time point, vehicle about 0.8, baseline about 0.1) | Baseline GB3 level in Fabry mouse liver (two weeks after a single infusion of α-galactosidase A enzyme) | Baseline GB3 level in Fabry mouse liver (two weeks after a single α-galactosidase A intravenous infusion)
1 | D-threo-1-(3′,4′-ethylenedioxy)phenyl-2-palmitoylamino-3-pyrrolidino-1-propanol [D-t-et-P4, reference compound] | less than 0.4 μg/gm |  | 
2 | α-galactosidase A: lysosomal enzyme deficient in Fabry disease, given as a single intravenous infusion for enzyme replacement (protein, UniProt P06280 32-429, looked up) Alpha-galactosidase A: LDNGLARTPTMGWLHWERFMCNLDCQEEPDSCISEKLFMEMAELMVSEGWKDAGYEYLCIDDCWMAPQRDSEGRLQADPQRFPHGIRQLANYVHSKGLKLGIYADVGNKTCAGFPGSFGYYDIDAQTFADWGVDLLKFDGCYCDSLENLADGYKHMSLALNRTGRSIVYSCEWPLYMWPFQKPNYTEIRQYCNHWRNFADIDDSWKSIKSILDWTSFNQERIVDVAGPGGWNDPDMLVIGNFGLSWNQQVTQMALWAIMAAPLFMSNDLRHISPQAKALLQDKDVIAINQDPLGKQGYQLRQGDNFEVWERPLSGLAWAVAMINRQEIGGPRSYTIAVASLGKGVACNPACFITQLLPVKRKLGFYEWTSRLRSHINPTGTVLLQLENTMQMSLKDLL |  | about 0.1 μg/g liver | about 0.1 μg/gm liver tissue
